Literature values, collected in paper PMC3951274.
pKd: −log10 of the molar value.

Legend:
[1] = molecular target: [α2(IV)454-465][α1(IV)437-448] heterotrimeric THP α2(IV)454-465, α1(IV)437-448 (Homo sapiens) (UniProt P02462)
[2] = molecular target: α1(I)127-138 THP 127-138 (Homo sapiens) (UniProt P02452)

UniProt P02462, sequence (P02462 173-1669, chain 1 of 2): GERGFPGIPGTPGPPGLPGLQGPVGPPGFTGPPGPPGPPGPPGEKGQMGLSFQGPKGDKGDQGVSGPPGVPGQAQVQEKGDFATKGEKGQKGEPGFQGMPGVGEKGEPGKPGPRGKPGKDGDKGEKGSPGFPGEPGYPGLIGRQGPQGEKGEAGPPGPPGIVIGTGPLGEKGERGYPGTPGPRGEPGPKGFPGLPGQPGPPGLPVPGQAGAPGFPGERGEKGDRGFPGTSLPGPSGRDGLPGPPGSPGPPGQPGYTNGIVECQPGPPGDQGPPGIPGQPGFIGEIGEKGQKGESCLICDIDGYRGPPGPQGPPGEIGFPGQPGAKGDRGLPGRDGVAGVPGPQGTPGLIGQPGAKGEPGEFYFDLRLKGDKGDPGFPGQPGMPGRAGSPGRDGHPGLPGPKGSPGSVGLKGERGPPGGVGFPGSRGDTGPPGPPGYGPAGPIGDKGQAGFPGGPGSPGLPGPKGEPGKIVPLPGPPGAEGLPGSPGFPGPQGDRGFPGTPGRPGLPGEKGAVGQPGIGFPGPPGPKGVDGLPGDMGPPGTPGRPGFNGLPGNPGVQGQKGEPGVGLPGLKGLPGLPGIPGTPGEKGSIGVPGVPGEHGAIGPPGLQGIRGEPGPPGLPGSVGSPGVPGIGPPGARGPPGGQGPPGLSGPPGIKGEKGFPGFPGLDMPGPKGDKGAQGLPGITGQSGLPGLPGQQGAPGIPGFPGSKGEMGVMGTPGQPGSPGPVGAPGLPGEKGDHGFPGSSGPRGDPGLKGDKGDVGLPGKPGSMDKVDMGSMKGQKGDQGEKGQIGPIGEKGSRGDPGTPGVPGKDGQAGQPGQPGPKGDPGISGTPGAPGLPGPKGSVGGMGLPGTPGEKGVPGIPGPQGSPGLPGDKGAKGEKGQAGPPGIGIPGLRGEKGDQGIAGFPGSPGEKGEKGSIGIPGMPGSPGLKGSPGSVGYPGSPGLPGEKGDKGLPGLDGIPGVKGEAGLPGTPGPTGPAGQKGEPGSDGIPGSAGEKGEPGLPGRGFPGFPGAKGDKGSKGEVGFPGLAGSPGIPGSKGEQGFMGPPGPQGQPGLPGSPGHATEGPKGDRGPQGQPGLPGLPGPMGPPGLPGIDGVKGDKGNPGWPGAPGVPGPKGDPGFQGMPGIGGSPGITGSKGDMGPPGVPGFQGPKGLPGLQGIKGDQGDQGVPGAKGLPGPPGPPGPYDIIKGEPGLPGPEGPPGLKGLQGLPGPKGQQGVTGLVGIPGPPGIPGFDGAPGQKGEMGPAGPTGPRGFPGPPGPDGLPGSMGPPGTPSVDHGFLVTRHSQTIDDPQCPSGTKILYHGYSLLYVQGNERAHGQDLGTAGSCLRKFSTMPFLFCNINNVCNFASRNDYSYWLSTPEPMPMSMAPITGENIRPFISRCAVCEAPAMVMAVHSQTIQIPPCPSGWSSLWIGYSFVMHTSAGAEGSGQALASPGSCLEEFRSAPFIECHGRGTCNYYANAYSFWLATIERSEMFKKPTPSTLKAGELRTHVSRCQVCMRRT
UniProt P02462, sequence (P08572 184-1712, chain 2 of 2, further chain): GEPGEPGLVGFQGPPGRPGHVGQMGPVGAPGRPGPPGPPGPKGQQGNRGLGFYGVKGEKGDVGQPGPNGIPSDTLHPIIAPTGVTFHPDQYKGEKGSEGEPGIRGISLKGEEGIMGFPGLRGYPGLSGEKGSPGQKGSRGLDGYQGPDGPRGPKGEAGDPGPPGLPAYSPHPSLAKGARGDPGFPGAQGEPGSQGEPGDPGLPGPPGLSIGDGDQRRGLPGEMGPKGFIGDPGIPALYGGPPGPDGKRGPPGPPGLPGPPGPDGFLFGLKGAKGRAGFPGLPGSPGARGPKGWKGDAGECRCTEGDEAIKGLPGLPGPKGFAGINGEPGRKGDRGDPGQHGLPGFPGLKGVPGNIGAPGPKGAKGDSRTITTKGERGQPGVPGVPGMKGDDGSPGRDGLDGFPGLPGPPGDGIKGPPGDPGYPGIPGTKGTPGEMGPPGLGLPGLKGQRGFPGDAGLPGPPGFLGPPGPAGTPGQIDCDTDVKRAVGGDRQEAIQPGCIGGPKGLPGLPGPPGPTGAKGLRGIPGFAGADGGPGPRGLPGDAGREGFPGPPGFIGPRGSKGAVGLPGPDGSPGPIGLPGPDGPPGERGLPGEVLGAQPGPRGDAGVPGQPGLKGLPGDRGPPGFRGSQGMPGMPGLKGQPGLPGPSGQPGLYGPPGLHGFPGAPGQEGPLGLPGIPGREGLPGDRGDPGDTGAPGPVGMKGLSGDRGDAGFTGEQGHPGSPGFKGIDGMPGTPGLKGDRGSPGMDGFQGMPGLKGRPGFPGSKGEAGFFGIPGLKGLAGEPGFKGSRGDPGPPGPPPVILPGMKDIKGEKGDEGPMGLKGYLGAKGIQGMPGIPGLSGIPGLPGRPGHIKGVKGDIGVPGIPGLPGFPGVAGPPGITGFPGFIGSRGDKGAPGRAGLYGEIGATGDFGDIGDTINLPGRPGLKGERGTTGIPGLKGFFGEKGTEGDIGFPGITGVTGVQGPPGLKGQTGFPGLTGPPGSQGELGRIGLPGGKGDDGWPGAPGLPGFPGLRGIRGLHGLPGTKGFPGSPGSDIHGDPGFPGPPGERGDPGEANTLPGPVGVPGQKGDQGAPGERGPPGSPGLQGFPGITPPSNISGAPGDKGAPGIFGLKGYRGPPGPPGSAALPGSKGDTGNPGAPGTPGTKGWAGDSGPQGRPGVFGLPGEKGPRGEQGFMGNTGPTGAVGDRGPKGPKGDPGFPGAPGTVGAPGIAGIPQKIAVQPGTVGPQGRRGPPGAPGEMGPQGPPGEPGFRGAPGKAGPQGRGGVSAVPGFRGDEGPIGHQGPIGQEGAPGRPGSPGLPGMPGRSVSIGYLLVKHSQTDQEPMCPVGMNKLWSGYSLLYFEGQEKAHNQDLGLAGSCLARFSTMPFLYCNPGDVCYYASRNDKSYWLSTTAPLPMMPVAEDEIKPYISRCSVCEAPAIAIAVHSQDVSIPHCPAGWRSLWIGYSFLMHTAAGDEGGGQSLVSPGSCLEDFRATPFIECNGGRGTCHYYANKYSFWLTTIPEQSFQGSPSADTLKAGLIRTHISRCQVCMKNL

Row | pKd [1] | pKd [2] | Substance
1 | 4.70 | – | integrin α1β1 (from UniProt P56199)
2 | – | 6.40 | integrin α2 I-domain (from UniProt P17301)
